Data: the supplement of paper PMC10567573

B1: CDC25A (parent)
chain: KKFRTKSRTWAGEKSKREMYSRLK
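Note: lentivirally expressed fusions sorted by FACS into six bins by GFP to DsRed ratio, PSI derived from sequencing read proportions per bin multiplied by bin number.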

Variants of: B1
Assay: protein stability index of a GFP-peptide fusion (GPS, HEK-293T) (PSI 1-6); higher = more stable
Conditions: c terminus: a fixed tail appended
With KKFRTKSRTWAGEMSKREMYSRLK the protein stability index was 3.07.
KKFRTKSRTWAGEASKREMYSRLK showed a protein stability index of 2.82.
In the case of KKFRTKSRTWAGEFSKREMYSRLK, the protein stability index is reported as 2.44.
In the case of KKFRTKSRTWAGEGSKREMYSRLK, the protein stability index is reported as 4.36.
Variant KKFRTKSRTWAGEQSKREMYSRLK has a protein stability index of 3.09.
Work on KKFRTKSRTWAGENSKREMYSRLK yielded a protein stability index of 4.05.
For KKFRTKSRTWAGERSKREMYSRLK, the protein stability index was 2.61.
With KKFRTKSRTWAGEWSKREMYSRLK the protein stability index was 1.6.
KKFRTKSRTWAGEHSKREMYSRLK showed a protein stability index of 2.82.
Variant KKFRTKSRTWAGELSKREMYSRLK has a protein stability index of 2.51.
Work on KKFRTKSRTWAGETSKREMYSRLK yielded a protein stability index of 3.1.
KKFRTKSRTWAGEVSKREMYSRLK gave a protein stability index of 2.41.
Variant KKFRTKSRTWAGEYSKREMYSRLK has a protein stability index of 2.25.
KKFRTKSRTWAGEISKREMYSRLK gave a protein stability index of 2.71.
KKFRTKSRTWAGESSKREMYSRLK gave a protein stability index of 2.44.
KKFRTKSRTWAGEKVKREMYSRLK showed a protein stability index of 2.52.
For KKFRTKSRTWAGEKTKREMYSRLK, the protein stability index was 3.88.
For KKFRTKSRTWAGEKNKREMYSRLK, the protein stability index was 2.52.
For KKFRTKSRTWAGEKQKREMYSRLK, the protein stability index was 2.38.
Work on KKFRTKSRTWAGEKLKREMYSRLK yielded a protein stability index of 2.58.
In the case of KKFRTKSRTWAGEKMKREMYSRLK, the protein stability index is reported as 3.2.
KKFRTKSRTWAGEKWKREMYSRLK gave a protein stability index of 1.3.
With KKFRTKSRTWAGEKHKREMYSRLK the protein stability index was 3.12.
For KKFRTKSRTWAGEKDKREMYSRLK, the protein stability index was 3.3.
Variant KKFRTKSRTWAGEKYKREMYSRLK has a protein stability index of 1.94.
KKFRTKSRTWAGEKFKREMYSRLK showed a protein stability index of 3.34.
Work on KKFRTKSRTWAGEKIKREMYSRLK yielded a protein stability index of 2.45.
KKFRTKSRTWAGEKAKREMYSRLK showed a protein stability index of 3.72.
Work on KKFRTKSRTWAGEKCKREMYSRLK yielded a protein stability index of 3.4.
In the case of KKFRTKSRTWAGEKGKREMYSRLK, the protein stability index is reported as 2.52.
Variant KKFRTKSRTWAGEKRKREMYSRLK has a protein stability index of 2.73.
With KKFRTKSRTWAGEKKKREMYSRLK the protein stability index was 3.14.
KKFRTKSRTWAGEKSKREMNSRLK showed a protein stability index of 3.02.
Variant KKFRTKSRTWAGEKSKREMPSRLK has a protein stability index of 4.12.
Variant KKFRTKSRTWAGEKSKREMQSRLK has a protein stability index of 4.34.
With KKFRTKSRTWAGEKSKREMMSRLK the protein stability index was 3.29.
KKFRTKSRTWAGEKSKREMCSRLK showed a protein stability index of 3.97.
KKFRTKSRTWAGEKSKREMWSRLK showed a protein stability index of 2.37.
With KKFRTKSRTWAGEKSKREMISRLK the protein stability index was 3.13.
Work on KKFRTKSRTWAGEKSKREMDSRLK yielded a protein stability index of 3.35.
Variant KKFRTKSRTWAGEKSKREMHSRLK has a protein stability index of 3.01.
Variant KKFRTKSRTWAGEKSKREMTSRLK has a protein stability index of 3.41.
For KKFRTKSRTWAGEKSKREMVSRLK, the protein stability index was 2.92.
In the case of KKFRTKSRTWAGEKSKREMLSRLK, the protein stability index is reported as 2.33.
Variant KKFRTKSRTWAGEKSKREMKSRLK has a protein stability index of 4.45.
KKFRTKSRTWAGEKSKREMFSRLK showed a protein stability index of 2.88.
In the case of KKFRTKSRTWAGEKSKREMSSRLK, the protein stability index is reported as 4.69.
KKFRTKSRTWAGEKSKRDMYSRLK gave a protein stability index of 3.12.
In the case of KKFRTKSRTWAGEKSKRLMYSRLK, the protein stability index is reported as 2.64.
KKFRTKSRTWAGEKSKRFMYSRLK showed a protein stability index of 2.88.
For KKFRTKSRTWAGEKSKRQMYSRLK, the protein stability index was 2.37.
In the case of KKFRTKSRTWAGEKSKRGMYSRLK, the protein stability index is reported as 2.98.
Variant KKFRTKSRTWAGEKSKRPMYSRLK has a protein stability index of 2.17.
KKFRTKSRTWAGEKSKRNMYSRLK gave a protein stability index of 3.
Variant KKFRTKSRTWAGEKSKRWMYSRLK has a protein stability index of 4.23.
For KKFRTKSRTWAGEKSKRHMYSRLK, the protein stability index was 2.71.
KKFRTKSRTWAGEKSKRMMYSRLK showed a protein stability index of 2.87.
Work on KKFRTKSRTWAGEKSKRTMYSRLK yielded a protein stability index of 2.19.
KKFRTKSRTWAGEKSKRIMYSRLK showed a protein stability index of 3.64.
Work on KKFRTKSRTWAGEKSKRKMYSRLK yielded a protein stability index of 1.94.
For KKFRTKSRTWAGEKSKRSMYSRLK, the protein stability index was 2.43.
With KKFRTKSRTWAGEKSKRYMYSRLK the protein stability index was 1.9.
Variant KKFRTKSRTWAGEKSKRCMYSRLK has a protein stability index of 3.07.
Variant KKFRTKSRTWACEKSKREMYSRLK has a protein stability index of 2.61.
KKFRTKSRTWAAEKSKREMYSRLK showed a protein stability index of 3.21.
KKFRTKSRTWASEKSKREMYSRLK showed a protein stability index of 2.64.
KKFRTKSRTWATEKSKREMYSRLK showed a protein stability index of 2.6.
For KKFRTKSRTWAEEKSKREMYSRLK, the protein stability index was 2.82.
Work on KKFRTKSRTWAPEKSKREMYSRLK yielded a protein stability index of 3.93.
KKFRTKSRTWALEKSKREMYSRLK gave a protein stability index of 2.11.
Work on KKFRTKSRTWANEKSKREMYSRLK yielded a protein stability index of 2.26.
Work on KKFRTKSRTWAKEKSKREMYSRLK yielded a protein stability index of 2.42.
With KKFRTKSRTWAWEKSKREMYSRLK the protein stability index was 2.5.
KKFRTKSRTWAYEKSKREMYSRLK showed a protein stability index of 2.61.
KKFRTKSRTWAQEKSKREMYSRLK showed a protein stability index of 2.86.
In the case of KKFRTKSRTWAVEKSKREMYSRLK, the protein stability index is reported as 2.64.
Work on KKFRTKSRTWAFEKSKREMYSRLK yielded a protein stability index of 2.68.
In the case of KKFRTKSRTWAIEKSKREMYSRLK, the protein stability index is reported as 2.43.
KKFRTKSRTWAMEKSKREMYSRLK showed a protein stability index of 3.44.
Work on KKFRTKSRTWAGNKSKREMYSRLK yielded a protein stability index of 2.79.
With KKFRTKSRTWAGTKSKREMYSRLK the protein stability index was 3.43.
KKFRTKSRTWAGRKSKREMYSRLK showed a protein stability index of 3.63.
KKFRTKSRTWAGKKSKREMYSRLK showed a protein stability index of 3.49.
Variant KKFRTKSRTWAGHKSKREMYSRLK has a protein stability index of 3.1.
With KKFRTKSRTWAGWKSKREMYSRLK the protein stability index was 3.5.
With KKFRTKSRTWAGQKSKREMYSRLK the protein stability index was 3.34.
Variant KKFRTKSRTWAGDKSKREMYSRLK has a protein stability index of 3.61.
KKFRTKSRTWAGIKSKREMYSRLK showed a protein stability index of 3.07.
For KKFRTKSRTWAGLKSKREMYSRLK, the protein stability index was 4.12.
In the case of KKFRTKSRTWAGYKSKREMYSRLK, the protein stability index is reported as 3.25.
For KKFRTKSRTWAGSKSKREMYSRLK, the protein stability index was 2.97.
Work on KKFRTKSRTWAGPKSKREMYSRLK yielded a protein stability index of 3.27.
Work on KKFRTKSRTWAGFKSKREMYSRLK yielded a protein stability index of 2.19.
In the case of KKFRTKSRTWAGGKSKREMYSRLK, the protein stability index is reported as 3.29.
